Target: T1, rmCIRP (Mus musculus, UniProt P60824)
T1 construct: purchased Cubasio Technology LLC CSB-EP613483He0
T1 sequence (P60824 1-172): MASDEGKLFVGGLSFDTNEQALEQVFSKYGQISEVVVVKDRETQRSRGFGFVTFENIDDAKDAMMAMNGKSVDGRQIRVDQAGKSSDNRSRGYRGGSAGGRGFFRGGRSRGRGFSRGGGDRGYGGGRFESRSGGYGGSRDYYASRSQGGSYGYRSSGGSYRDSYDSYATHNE
Assay: Surface plasmon resonance (Biacore/OpenSPR) binding to rmCIRP
Set-up: species or system murine
Conditions: rmCIRP immobilized, rmMFG-E8 analyte 15.7 to 250 nM, DPBS with Ca/Mg, 1% BSA, pH 7.4; read-out: equilibrium dissociation KD between rmCIRP and rmMFG-E8
Source text: Computational modeling was used to determine the likely domain of MFG-E8's binding to eCIRP. The known amino acid (AA) sequence of this domain was used to develop and test potential therapeutic peptides. An MFG-E8 derived oligopeptide, MOP3, was developed based on 15 AA from MFG-E8 discoidin 2 domain (mimicking MFG-E8's C-terminal) and tagged with the 3 AA, RGD, (mimicking MFG-E8's binding capacity for the integrin receptor at the N-terminal). Binding of MOP3 to CIRP was quantified using Surface Plasmon Resonance (SPR) analysis. Macrophages (RAW264.7 cells) were treated with FITC-recombinant mouse (rm)-CIRP or co-incubated MOP3 and FITC-rmCIRP with and without a. Br-integrin Ab. After 1 h, cells were fixed and analyzed for intracellular FITC-rmCIRP by flow cytometry. Macrophages were stimulated with rmCIRP or co-incubated mixture of MOP3 and rmCIRP. After 4 h, cell culture supernatants were analyzed for inflammatory cytokine, TNFα. […]
To examine the direct interaction between rmCIRP and rmMFG-E8, surface plasmon resonance (SPR), OpenSPR (Nicoya), was performed between rmCIRP and rmMFG-E8. rmCIRP was immobilized on carboxyl sensor and rmMFG-E8 was injected as an analyte in concentrations of 15.7 nM to 250 nM. […] To evaluate binding, the analyte was injected into flow cell-1 and flow cell-2 and increasing concentrations and real-time interaction data were analyzed by TraceDrawer (Nicoya). […]

B1: milk fat globule-epidermal growth factor—factor VIII (protein, listed as Mus musculus)
chain: MQVSRVLAALCGMLLCASGLFAASGDFCDSSLCLNGGTCLTGQDNDIYCLCPEGFTGLVCNETERGPCSPNPCYNDAKCLVTLDTQRGDIFTEYICQCPVGYSGIHCETETNYYNLDGEYMFTTAVPNTAVPTPAPTPDLSNNLASRCSTQLGMEGGAIADSQISASSVYMGFMGLQRWGPELARLYRTGIVNAWTASNYDSKPWIQVNLLRKMRVSGVMTQGASRAGRAEYLKTFKVAYSLDGRKFEFIQDESGGDKEFLGNLDNNSLKVNMFNPTLEAQYIKLYPVSCHRGCTLRFELLGCELHGCSEPLGLKNNTIPDSQMSASSSYKTWNLRAFGWYPHLGRLDNQGKINAWTAQSNSAKEWLQVDLGTQRQVTGIITQGARDFGHIQYVASYKVAHSDDGVQWTVYEEQGSSKVFQGNLDNNSHKKNIFEKPFMARYVRVLPVSWHNRITLRLELLGC
Kd: 200 nM
